Data on 11 molecules can be found in patent US8106168B2, “Metalloproteinase binding proteins” (Dyax Corp., priority 2005, dated 2012).

B1: M0041-B03: Fab that binds human MMP-14; DNA LV SEQ ID NO: 106, HV SEQ ID NO: 107 (antibody, V domains shown)
VL: QDIQMTQSPATLSASVGDRVTISCRASQNISNWLAWYQQKPGKAPKLLIYTASTLHRGVPSRFSGSGSGTDFTLTITSLQPEDFATYYCQQANTFPWTFGQGTKVEIK
VH: EVQLLESGGGLVQPGGSLRLSCAASGFTFSMYMMWWVRQAPGKGLEWVSVISSSGGFTSYADSVKGRFTISRDNSKNTLYLQMNSLRAEDTAVYYCARLRYSNFVGGLDVWGQGTTVTVSS
modifications: Synthetically generated oligonucleotide
B2: M0040-G04: Fab that binds human MMP-14; DNA LV SEQ ID NO: 98, HV SEQ ID NO: 99 (antibody, V domains shown)
VL: QSVLTQPPSASGTPGQRVTISCSGSRTNIGSDYVYWYQQLPGTAPKLLIYRNNERPSGVPDRFSGFKSGTSASLAISGLRSEDEADYYCASWDDRLSGPVFGGGTKLTVL
VH: EVQLLESGGGLVQPGGSLRLSCAASGFTFSQYHMLWVRQAPGKGLEWVSVIVSSGGFTFYADSVKGRFTISRDNSKNTLYLQMNSLRAEDTAVYYCARSYGGDAFDIWGQGTMVTVSS
modifications: Synthetically generated oligonucleotide
B3: M0040-H04: Fab that binds human MMP-14; DNA LV SEQ ID NO: 100, HV SEQ ID NO: 101 (antibody, V domains shown)
VL: QDIQMTQSPDSLAVSLGERATLNCRSSQSVLYSPNNKNYLAWYQQKAGQPPKLLIYWASFRESGVPERFSGSGSGTDFTLTISSLQAEDVAVYYCQQYHTPPWTFGQGTKVEIK
VH: EVQLLESGGGLVQPGGSLRLSCAASGFTFSSYDMVWVRQAPGKGLEWVSSISPSGGNTQYADSVKGRFTISRDNSKNTLYLQMNSLRAEDTAVYYCAKVAAMAPWYFDYWGQGTLVTVSS
modifications: Synthetically generated oligonucleotide
B4: M0040-C10: Fab that binds human MMP-14; DNA LV SEQ ID NO: 92, HV SEQ ID NO: 93 (antibody, V domains shown)
VL: QDIQMTQSPATLSASVGDRVTITCRASQTISTYLNWYQHKPGKAPELLIYAASSLQSGVPSRFSGSGSGTDFTLRISSLQPEDFATYYCQQSYTTPWTFGQGTKVEIK
VH: EVQLLESGGGLVQPGGSLRLSCAASGFTFSRYMMVWVRQAPGKGLEWVSSIVSSGGKTWYADSVKGRFTISRDNSKNTLYLQMNSLRAEDTAMYYCARWDWGPFDYWGQGTLVTVSS
modifications: Synthetically generated oligonucleotide
B5: M0041-C11: Fab that binds human MMP-14; DNA LV SEQ ID NO: 110, HV SEQ ID NO: 111 (antibody, V domains shown)
VL: QDIQMTQSPSSLSASVGDRVTITCRASQRIGSYLNWYQQNSGKAPRLLIYGASNLESGVPSRFSGRGSGTDFTLTISSLQPEDFATYYCQQSNSTPHTFGQGTKVEIK
VH: EVQLLESGGGLVQPGGSLRLSCAASGFTFSQYPMSWVRQAPGKGLEWVSSIGPGGWTWYADSVKGRFTISRDNSKNTLYLQMNSLRAEDTAVYYCARTATRIFGVVIMGRAFDIWGQGTMVTVSS
modifications: Synthetically generated oligonucleotide
B6: M0040-D08: Fab that binds human MMP-14; DNA LV SEQ ID NO: 94, HV SEQ ID NO: 95 (antibody, V domains shown)
VL: QSALTQSPSASASLGSSVKLTCTLASEHSGYIIAWHQQQPGKAPRFLMKLDGTGNFNKGSGVPDRFSGYSSGADRYLTISNLQSEDEADYYCETWDSTTLWVFGGGTKLTVL
VH: EVQLLESGGGLVQPGGSLRLSCAASGFTFSHYGMTWVRQAPGKGLEWVSSIVPSGGYTAYADSVKGRFTISRDNSKNTLYLQMNSLRAEDTAVYYCTTGLSSSGTRWFDAWGQGTLVTVSS
modifications: Synthetically generated oligonucleotide
B7: M0040-F03: Fab that binds human MMP-14; DNA LV SEQ ID NO: 96, HV SEQ ID NO: 97 (antibody, V domains shown)
VL: QDIQMTQSPLSLPVTPGEPASISCRSGQSLLHSNGYNYLNWYLQKPGQSPQLLIYLGSYRASGVPDRFSGSGSGTDFTLKISRVEAEDVGLYYCMQALQTPLTFGVGTKVEIK
VH: EVQLLESGGGLVQPGGSLRLSCAASGFTFSMYVMSWVRQAPGKGLEWVSSISSSGGNTGYADSVKGRFTISRDNSKNTLYLQMNSLRAEDTAVYYCAKSSLYYDILAGPGFDYWGQGTLVTVSS
modifications: Synthetically generated oligonucleotide
B8: M0041-B11: Fab that binds human MMP-14; DNA LV SEQ ID NO: 108, HV SEQ ID NO: 109 (antibody, V domains shown)
VL: QSVLTQDPAVSVALGQTVRITCQGDSLRSYSASWYQRKPGQAPLLVIYRKTNRPSGIPDRFSGSSSGNTASLTITGAQAEDESDYYCNSRDSSGNHLFGGGTKLTVL
VH: EVQLLESGGGLVQPGGSLRLSCAASGFTFSQYSMHWVRQAPGKGLEWVSSIVPSGGMTAYADSVKGRFTISRDNSKNTLYLQMNSLRAEDTAVYYCAKISRGNDAFDIWGQGTMVTVSS
modifications: Synthetically generated oligonucleotide
B9: M0041-A05: Fab that binds human MMP-14; DNA LV SEQ ID NO: 104, HV SEQ ID NO: 105 (antibody, V domains shown)
VL: QDIQMTQSPSSLSASVGDRVTITCRASQNINSYLNWYQQKPGKAPKLLIYAASSLQSGVPSRFSGSGSGTDFTLTISSLQPEDFVTYYCQQSYSTPKTFGQGTKVEIK
VH: EVQLLESGGGLVQPGGSLRLSCAASGFTFSVYTMHWVRQAPGKGLEWVSVIYPSGGLTIYADSVKGRFTISRDNSKNTLYLQMNSLRAEDTAVYYCARNRGYYAPMDVWGQGTTVTVSS
modifications: Synthetically generated oligonucleotide
B10: M0040-H09: Fab that binds human MMP-14; DNA LV SEQ ID NO: 102, HV SEQ ID NO: 103 (protein)
chain 1: QSELTQDPAVSVALGQAVIITCQGDSLRTYYPSWYQQKPGQAPTLLVYGKNKRPSGVPDRFSGSRSGDTASLIITGAQAEDDADYYCNSRDGSGHLFVFGPGTTVTVL
chain 2: EVQLLESGGGLVQPGGSLRLSCAASGFTFSLYPMQWVRQAPGKGLEWVSYIRSSGGKTHYADSVKGRFTISRDNSKNTLYLQMNSLRAEDTAVYYCARVGMGSGWYTGYFDLWGRGTLVTVSS
modifications: Synthetically generated oligonucleotide
B11: M0041-D03: Fab that binds human MMP-14; DNA LV SEQ ID NO: 112, HV SEQ ID NO: 113 (antibody, V domains shown)
VL: QDIQMTQSPSSLSASVGDRITVTCRASQSITNYLNWYQQKPGKAPKLLIYAASTLQSGVPSRFSGSGSGTDFTLTISRLEPEDFAVYYCQQYGSSPTFGQGTKVEVK
VH: EVQLLESGGGLVQPGGSLRLSCAASGFTFSFYNMTWVRQAPGKGLEWVSSIYSSGGNTDYADSVKGRFTISRDNSKNTLYLQMNSLRAEDTAVYYCARDSLSHYYYGMDVWGQGTTVTVSS
modifications: Synthetically generated oligonucleotide

For the assay, the target named is MMP-14 (Homo sapiens, UniProt P50281). As to the kind of experiment: Selection and phage ELISA screening of anti-MMP-14 Fabs. It is filed as binding. Conditions: Fab from FAB310 phage display library. The procedure:
Strategy I: A 100-fold excess of the FAB310 library (e.g., an amount of the library that should contain 100 copies of each library member) was depleted of streptavidin-binding antibodies by incubating the library with 200 μL of streptavidin beads for 1 hour at room temperature (RT) with rotation. 500 nM of biotinylated MMP-14 was coupled to streptavidin beads by incubation with 100 μL of streptavidin beads. The MMP-14 beads were then incubated with the streptavidin-depleted library for 1 hour at RT with rotation. The beads were then rinsed three times with 2% MTRIS/0.1% Tween, transferred to a fresh tube and washed an additional three times with 2% MTRIS/0.1% Tween, and transferred to a fresh tube and washed a final time with Round 1 TRIS buffer (50 mM TRIS; 50 mM CaCl2; 150 mM NaCl, pH 7.5).
MMP-14 binding antibodies were eluted from the beads by re-suspension in 1 mL 2% MTRIS containing 2.5 μM TIMP-2 and incubation for 1 hour at RT with rotation. The beads were then washed three times with 2% MTRIS/0.1% Tween, transferred to a fresh tube and washed three times with TRIS/0.1% Tween, and transferred to a fresh tube and washed a final time with TRIS. 1 mL output was used for infection of 9 mL TG1 bacteria (grown to OD600=0.5). The beads were further eluted by suspension in 1 mL 100 mM TEA for 10 minutes. The supernatant was neutralized with 500 μl TRIS/HCl pH 7.5. 1 mL of the second elution was used for infection of 9 mL TG1 bacteria (grown to OD600=0.5).
Two additional rounds of selection were carried out under the same conditions as the first round, except that the streptavidin beads were loaded with 100 nM biotinylated MMP-14 and the number of washes were doubled (6 times with 2% MTRIS/0.1% Tween, 6 times with TRIS/0.1% Tween and 2 times with TRIS), and Round 2/3 Tris buffer (50 mM TRIS; 5 mM CaCl2; 150 mM NaCl pH=7.5) was used for incubation and wash.
TIMP-2 was coupled to carboxylic beads, then complexed with a combination of biotinylated MMP-14 (500 nM each). The complexed beads were incubated with a 100 fold excess of FAB310 library that had been previously depleted by incubation with streptavidin beads and carboxylic beads. Elution/washing was carried out as for Strategy I.
Two additional rounds of selection were carried out, essentially as described for Strategy I, except that only 100 nM of each of MMP-14 were used in the bead complexes.
384-well plates were coated with biotinylated BSA (2 μg/ml in 50 mM TRIS; 5 mM CaCl2; 150 mM NaCl, pH 7.5), then washed 3 times with 50 mM TRIS; 5 mM CaCl2; 150 mM NaCl, pH 7.5; 0.1% Tween. Streptavidin was captured on the coated plates by incubation with 10 μg/mL streptavidin in 50 mM TRIS; 5 mM CaCl2; 150 mM NaCl pH 7.5; 0.5% Gelatin, followed by a wash with 50 mM TRIS; 5 mM CaCl2; 150 mM NaCl pH=7.5; 0.1% Tween. On the day the assay was to be performed, biotinylated MMP-14 (1 μg/ml) was captured in 50 mM TRIS; 5 mM CaCl2; 150 mM NaCl, pH 7.5.
95 clones were picked from each of Round 2 and Round 3 of each selection strategy, producing 12 masterplates. ELISA was run on the MiniTrak-5 deck according to SOP.
Background: An ELISA detects its analyte on a solid surface through an enzyme-linked reagent.
On to B1, for which the “bind to human MMP-14” value is “bind to human MMP-14”.
The entry for B2 is “bind to human MMP-14”; for B3 it is “bind to human MMP-14”.
The entry for B4 is “bind to human MMP-14”.
To B5 belongs “bind to human MMP-14”; to B6, “bind to human MMP-14”.
With B7, the “bind to human MMP-14” value is listed as “bind to human MMP-14”.
With B8, the “bind to human MMP-14” value is “bind to human MMP-14”.
Consider B9, for which the “bind to human MMP-14” value is “bind to human MMP-14”.
To B10 belongs “bind to human MMP-14”; to B11, “bind to human MMP-14”.
